Measured values as given in paper PMC4066673.

Substrate: CCCCCCCCCCCCCC(=O)SCCNC(=O)CCNC(=O)[C@H](O)C(C)(C)COP(=O)(O)OP(=O)(O)OC[C@H]1O[C@@H](n2cnc3c(N)ncnc32)[C@H](O)[C@@H]1OP(=O)(O)O
Test: purified protein
Conditions: pH 7.5; 25.0 °C

B1: hTHEM4 (Homo sapiens) (protein)
chain: SSEEVILKDCSVPNPSWNKDLRLLFDQFMKKCEDGSWKRLPSYKRTPTEWIQDFKTHFLDPKLMKEEQMSQAQLFTRSFDDGLGFEYVMFYNDIEKRMVCLFQGGPYLEGPPGFIHGGAIATMIDATVGMCAMMAGGIVMTANLNINYKRPIPLCSVVMINSQLDKVEGRKFFVSCNVQSVDEKTLYSEATSLFIKLNPAKSLT
With B1 as the protein, how does the kcat/Km read?
Its kcat/Km is 1.7e+06 M⁻¹ s⁻¹.
